Experimental data published in paper PMC9230926.

Substrate: O=P(O)(O)OP(=O)(O)O
Test: purified protein
Details: Mg2+ (MgPPi complex is the true substrate; free PPi inhibits)

B1: UDP-glucose pyrophosphorylase (UGPase) (Hordeum vulgare) (protein)
chain: MAAAAVAADSKIDGLRDAVAKLGEISENEKAGFISLVSRYLSGEAEQIEWSKIQTPTDEVVVPYDTLAPPPEDLDAMKALLDKLVVLKLNGGLGTTMGCTGPKSVIEVRNGFTFLDLIVIQIESLNKKYGCSVPLLLMNSFNTHDDTQKIVEKYSNSNIEIHTFNQSQYPRIVTEDFLPLPSKGQTGKDGWYPPGHGDVFPSLNNSGKLDTLLSQGKEYVFVANSDNLGAIVDIKILNHLIHNQNEYCMEVTPKTLADVKGGTLISYEGRVQLLEIAQVPDEHVDEFKSIEKFKIFNTNNLWVNLKAIKRLVDAEALKMEIIPNPKEVDGVKVLQLETAAGAAIRFFEKAIGINVPRSRFLPVKATSDLLLVQSDLYTLVDGYVIRNPARVKPSNPSIELGPEFKKVANFLARFKSIPSIVELDSLKVSGDVSFGSGVVLKGNVTIAAKAGVKLEIPDGAVLENKDINGPEDI
Km: 0.06 mM
